Measured values: US20120124686

Molecular target: T1, phiC31 integrase (phiC31o, mammalian codon-optimized) (Streptomyces phage phiC31) (UniProt Q9T221)
T1 sequence: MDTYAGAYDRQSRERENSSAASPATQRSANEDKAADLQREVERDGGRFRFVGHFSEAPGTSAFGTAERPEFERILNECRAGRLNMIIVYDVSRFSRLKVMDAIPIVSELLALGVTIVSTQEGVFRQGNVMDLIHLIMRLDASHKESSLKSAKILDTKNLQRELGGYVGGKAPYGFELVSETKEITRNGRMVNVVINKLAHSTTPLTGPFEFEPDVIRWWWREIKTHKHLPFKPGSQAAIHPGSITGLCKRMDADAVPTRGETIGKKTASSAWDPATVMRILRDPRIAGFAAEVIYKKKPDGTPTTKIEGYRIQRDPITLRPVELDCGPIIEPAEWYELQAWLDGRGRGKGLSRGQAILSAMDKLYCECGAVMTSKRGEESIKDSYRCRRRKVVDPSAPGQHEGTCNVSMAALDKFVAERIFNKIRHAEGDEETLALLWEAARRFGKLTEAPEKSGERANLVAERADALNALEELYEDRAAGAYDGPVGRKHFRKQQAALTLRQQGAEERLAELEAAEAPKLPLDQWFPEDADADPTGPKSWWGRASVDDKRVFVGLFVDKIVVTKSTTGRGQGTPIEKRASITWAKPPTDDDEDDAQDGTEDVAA
Experiment: cell_activity

full-length phiC31 attP (pTA-attP) was tested, and the activity (% of F0 with site-specific integration) (H11P(NVphi), mixed background, pooled 8/102, partner attB, mouse zygote injection) was 7.8.
full-length phiC31 attB (pTA-attB) gave an activity (% of F0 with site-specific integration) (attB plasmid pattB-pCA-GFP into H11P3NVphi, 10/64, 0/32 without integrase mRNA) of 15.6.
